Bridge positions count the residues as written; N and C are the ends. Square brackets hold non-standard residues; d marks the D form. Cit = NC(=O)NCCC[C@H](N)C(=O)O; Nle = CCCC[C@H](N)C(=O)O; Orn = NCCC[C@H](N)C(=O)O; Dab = NCC[C@H](N)C(=O)O; Dap = NC[C@H](N)C(=O)O
B1: Ac-Nle-cyclo(Asp-His-D-Phe-Arg-Dap)-Trp-NH2 (peptide)
peptide: Ac-[Nle]DH[dF]R[Dap]W-NH2
modifications: lactam 2-6
SMILES: CCCC[C@H](NC(C)=O)C(=O)N[C@H]1CC(=O)NC[C@@H](C(=O)N[C@@H](Cc2c[nH]c3ccccc23)C(N)=O)NC(=O)[C@H](CCCNC(=N)N)NC(=O)[C@@H](Cc2ccccc2)NC(=O)[C@H](Cc2c[nH]cn2)NC1=O
B2: Ac-Nle-cyclo(Glu-His-D-Phe-Ala-Dab)-Trp-NH2 (peptide)
peptide: Ac-[Nle]EH[dF]A[Dab]W-NH2
modifications: lactam 2-6
SMILES: CCCC[C@H](NC(C)=O)C(=O)N[C@H]1CCC(=O)NCC[C@@H](C(=O)N[C@@H](Cc2c[nH]c3ccccc23)C(N)=O)NC(=O)[C@H](C)NC(=O)[C@@H](Cc2ccccc2)NC(=O)[C@H](Cc2c[nH]cn2)NC1=O
B3: Ac-Nle-cyclo(Glu-His-D-Phe-Arg-Dab)-NH2 (SEQ ID NO: 47) (peptide)
peptide: Ac-[Nle]EH[dF]R[Dab]-NH2
modifications: lactam 2-6
SMILES: CCCC[C@H](NC(C)=O)C(=O)N[C@H]1CCC(=O)NCC[C@@H](C(N)=O)NC(=O)[C@H](CCCNC(=N)N)NC(=O)[C@@H](Cc2ccccc2)NC(=O)[C@H](Cc2c[nH]cn2)NC1=O
B4: Ac-Nle-cyclo(Glu-His-D-Phe-Dab)-NH2 (peptide)
peptide: Ac-[Nle]EH[dF][Dab]-NH2
modifications: lactam 2-5
SMILES: CCCC[C@H](NC(C)=O)C(=O)N[C@H]1CCC(=O)NCC[C@@H](C(N)=O)NC(=O)[C@@H](Cc2ccccc2)NC(=O)[C@H](Cc2c[nH]cn2)NC1=O
B5: Ac-Nle-cyclo(Glu-His-D-Phe-Gly-Dab)-Trp-NH2 (SEQ ID NO: 50) (peptide)
peptide: Ac-[Nle]EH[dF]G[Dab]W-NH2
modifications: lactam 2-6
SMILES: CCCC[C@H](NC(C)=O)C(=O)N[C@H]1CCC(=O)NCC[C@@H](C(=O)N[C@@H](Cc2c[nH]c3ccccc23)C(N)=O)NC(=O)CNC(=O)[C@@H](Cc2ccccc2)NC(=O)[C@H](Cc2c[nH]cn2)NC1=O
B6: Ac-Nle-cyclo(Glu-His-D-Phe-Arg-Dab)-Lys-NH2 (peptide)
peptide: Ac-[Nle]EH[dF]R[Dab]K-NH2
modifications: lactam 2-6
SMILES: CCCC[C@H](NC(C)=O)C(=O)N[C@H]1CCC(=O)NCC[C@@H](C(=O)N[C@@H](CCCCN)C(N)=O)NC(=O)[C@H](CCCNC(=N)N)NC(=O)[C@@H](Cc2ccccc2)NC(=O)[C@H](Cc2c[nH]cn2)NC1=O
B7: Ac-Nle-cyclo(Glu-His-D-Phe-Ala-Dab)-NH2 (SEQ ID NO: 48) (peptide)
peptide: Ac-[Nle]EH[dF]A[Dab]-NH2
modifications: lactam 2-6
SMILES: CCCC[C@H](NC(C)=O)C(=O)N[C@H]1CCC(=O)NCC[C@@H](C(N)=O)NC(=O)[C@H](C)NC(=O)[C@@H](Cc2ccccc2)NC(=O)[C@H](Cc2c[nH]cn2)NC1=O
B8: Ac-Nle-cyclo(Glu-His-D-Phe-Ala-Dab)-Trp-NH2 (SEQ ID NO: 51) (peptide)
peptide: Ac-[Nle]EH[dF]A[Dab]W-NH2
modifications: lactam 2-6
SMILES: CCCC[C@H](NC(C)=O)C(=O)N[C@H]1CCC(=O)NCC[C@@H](C(=O)N[C@@H](Cc2c[nH]c3ccccc23)C(N)=O)NC(=O)[C@H](C)NC(=O)[C@@H](Cc2ccccc2)NC(=O)[C@H](Cc2c[nH]cn2)NC1=O

biological target: human melanocortin-1 receptor hMCR-1 expressed by the human melanoma cell line HBL (human, UniProt Q01726 1-317); test: cell-based or functional assay
Sequence (Q01726 whole entry): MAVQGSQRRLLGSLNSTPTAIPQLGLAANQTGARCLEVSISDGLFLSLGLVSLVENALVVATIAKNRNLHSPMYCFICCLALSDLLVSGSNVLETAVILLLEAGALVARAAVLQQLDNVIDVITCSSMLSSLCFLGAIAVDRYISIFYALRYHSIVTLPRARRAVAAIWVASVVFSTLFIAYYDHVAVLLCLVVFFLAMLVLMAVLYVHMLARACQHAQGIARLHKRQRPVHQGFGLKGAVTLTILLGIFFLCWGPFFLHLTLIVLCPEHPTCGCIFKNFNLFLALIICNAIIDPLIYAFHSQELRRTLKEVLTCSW

Point of comparison: B4, “MC-1 Emax (average; cAMP HBL)” value 51%. Against it:
- Ac-[Nle]EK[dF]R[Dab]W-NH2 (lactam 2-6) [Ac-Nle-cyclo(Glu-Lys-D-Phe-Arg-Dab)-Trp-NH2] — higher, 108%
- B1 — higher, 88%
- Ac-[Nle]EA[dF]R[Dab]W-NH2 (lactam 2-6) [Ac-Nle-cyclo(Glu-Ala-D-Phe-Arg-Dab)-Trp-NH2 (SEQ ID NO: 52)] — higher, 86%
- Ac-[Nle]ER[dF]R[Dab]W-NH2 (lactam 2-6) [Ac-Nle-cyclo(Glu-Arg-D-Phe-Arg-Dab)-Trp-NH2] — higher, 100%
- Ac-[Nle]E[Cit][dF]R[Dab]W-NH2 (lactam 2-6) [Ac-Nle-cyclo(Glu-Cit-D-Phe-Arg-Dab)-Trp-NH2] — higher, 97%
- B2 — higher, 72%
- Ac-[Nle]E[Orn][dF]R[Dab]W-NH2 (lactam 2-6) [Ac-Nle-cyclo(Glu-Orn-D-Phe-Arg-Dab)-Trp-NH2] — higher, 109%
- B3 — higher, 85%
- B5 — higher, 59%
- B6 — higher, 91%
- B7 — higher, 73%
- Ac-[Nle][Dap]H[dF]R[Dab]W-NH2 (linker 2-6 via C(:O)‑(CH2)2‑C(:O)) [Ac-Nle-cyclo(Dap-His-D-Phe-Arg-Dab)-Trp-NH2 with bridge C(═O)-(CH2)2-C(═O)] — higher, 85%
- Ac-[Nle]E[Dab][dF]R[Dab]W-NH2 (lactam 2-6) [Ac-Nle-cyclo(Glu-Dab-D-Phe-Arg-Dab)-Trp-NH2] — higher, 108%
- B8 — higher, 72%
- Ac-[Nle]ER[dF]R[Dab]W-NH2 (lactam 2-6) [Ac-Nle-cyclo(Glu-Arg-D-Phe-Arg-Dab)-Trp-NH2 (SEQ ID NO: 53)] — higher, 100%
- Ac-[Nle]EA[dF]R[Dab]W-NH2 (lactam 2-6) [Ac-Nle-cyclo(Glu-Ala-D-Phe-Arg-Dab)-Trp-NH2] — higher, 86%

Point of comparison: B2, “MC-1 EC50 (average; cAMP HBL)” value 0.115 nM. Against it:
- B1 — 1.7-fold higher, 0.195 nM
- B3 — 2.8-fold higher, 0.32 nM
- B5 — 35-fold higher, 4 nM
- B6 — 1.5-fold higher, 0.175 nM
- B7 — 380-fold higher, 44 nM
- Ac-[Nle][Dap]H[dF]R[Dab]W-NH2 (linker 2-6 via C(:O)‑(CH2)2‑C(:O)) [Ac-Nle-cyclo(Dap-His-D-Phe-Arg-Dab)-Trp-NH2 with bridge C(═O)-(CH2)2-C(═O)] — 7.2-fold lower, 0.016 nM
- B8 — the same, 0.115 nM

Source: patent US20120225828A1 (PALATIN TECHNOLOGIES, published 2012)
